“Also recorded” adds a separate entry of the source.

One data set has as its system HT-1080 cells. Description: Immunofluorescence staining of treated cells, quantification of membrane intensity. Type of data set: cell-based, human.
Data set [1] has as its system B cell lymphoma mouse xenograft tumor tissue (SU-DHL-6 cells). Description: Staining of B cell lymphoma mouse xenograft tumor tissue sections. The note with it: 40 mg/kg IKE once daily IP for 14 days. Here is the method:
(§1) Tumor tissues were fixed in 4% paraformaldehyde (PFA) for 24 h at 4° C. followed by washing with PBS three times. The tissues were perfused in 30% sucrose for 24 h at 4° C. for cryo-protection. The samples were embedded in OCT cryostat sectioning medium, and then moved directly into a cryostat. After equilibration of temperature, frozen tumor tissues were cut into 5 μm thick sections. Tissue sections were mounted on to poly-L-lysine coated slides by placing the cold sections onto warm slides. Slides were stored at −80° C. until staining. For staining, slides were warmed to room temperature followed by washing with PBS twice. A hydrophobic barrier pen was used to draw a circle on each slide. The slides were permeabilized with PBS with 0.4% Triton X-100 (PBT) twice before non-specific-binding blocking by incubating the sections with 10% goat serum (ThermoFisher 50197Z) for 30 min at room temperature. […] All images were captured on a Zeiss LSM 800 confocal microscope at Plan-Apochromat 63×/1.40 Oil DIC objective with constant laser intensity for all analyzed samples. The intensity above threshold of the fluorescent signal of the bound antibodies was analyzed using NIH ImageJ software (ImageJ, RRID:SCR_003070). Data were expressed as fold change comparing with the vehicle. […]

The test system of data set [2] is HCC mouse xenograft tumor tissue (Huh-7 cells). Description: Staining of hepatocellular carcinoma (HCC) mouse xenograft tumor tissue sections. The note with it: 50 mg/kg IKE once daily IP for 2 days. The protocol: as §1
For another data set, the system named is A-673 cells. Description: Immunofluorescence in A-673 cells. The conditions noted are these: 1 μM RSL3, 4 h. It counts as cell-based, human.
The test system of a further data set is SK-BR-3 cells. Description: Immunofluorescence in SK-BR-3 cells. It counts as cell-based, human. The note with it: 1 μM RSL3, 4 h.

B1: 3F3-FMA: Murine monoclonal IgG1 raised against ferroptotic membrane fractions; antigen is transferrin receptor protein 1 (TfR1) (antibody, V domains shown)
VH: EVLLQQSGTELVRPGALVKLSCKASGFNIQDLYIHWVKQRPEQGLEWIGWIDPETDNTIYDPKFQGKASITADTSSNTAYLQLSSLTSEDTAMYYCSTGLLQWYFDVWGAGTAVTVSS
VL: DIVMTQSPSSLAMSIGQKVTMRCKSSQSLLNSYNQKNCLAWYQQKPGQSPKLLLYFVSTRESGVPDRFIGSGSGTDFTLTISSVQAEDLADYFCQQHYSTPLTFGAGTKLELK
B1: the “co-localization with GM130 (Golgi marker)” value in the data set on HT-1080 cells (1 μM RSL3, 4 h) is reported as “located in the Golgi”. The “co-localization with Tom20 (mitochondria) and PDI (ER) markers” value in the data set with HT-1080 cells (1 μM RSL3, 4 h) was “not visible in mitochondria or the ER”. In the data set with HT-1080 cells (1 μM RSL3, 4 h, vs DMSO), the “antibody staining / membrane intensity in RSL3-induced ferroptosis” value is “stained cell boundaries and the inside puncta became brighter”. For the same molecule, in the data set with HT-1080 cells (1 μM STS, 6 h), the “antibody staining on cell surface in STS-induced apoptosis” value is recorded as “wasn't detected”. In addition, the “antibody membrane intensity in camptothecin-induced apoptosis” value in the data set on HT-1080 cells (2 μM camptothecin, 24 h) was “no significant increase”. The “antibody membrane intensities in H2O2-treated cells” value in the data set on HT-1080 cells (1 mM H2O2, 4 h) was “didn't observe increased membrane intensities”. The figures for the “antibody staining intensity in IKE-treated vs vehicle tumor tissue” value in data set [1] and in data set [2] were “did not detect its antigen; also recorded: no difference” and “increased intensities; also recorded: difference in intensities”, respectively. The “3F3-FMA staining upon ferroptosis induction” value in the data set on A-673 cells is “concentrated at the cell boundaries and became brighter”; in the data set on SK-BR-3 cells, “concentrated at the cell boundaries and became brighter”.

These data come from patent US20230140200A1, “COMPOSITIONS AND METHODS FOR DETECTING CELLS UNDERGOING FERROPTOSIS USING AN ANTIBODY” (THE TRUSTEES OF COLUMBIA UNIVERSITY IN THE CITY OF NEW YORK, priority 2020, published 2023).
